Laboratory results published in patent publication US20230002480A1.

Experiments:
Experiment in all cases: cell-based or functional assay
[1] = biological target: HIV-1 Env of pseudovirus ZM135M.PL10a (HIV-1)
[2] = biological target: HIV-1 Env of pseudovirus SC05_8C11_2344 (HIV-1)
[3] = biological target: HIV-1 Env of pseudovirus CNE20 (HIV-1)
[4] = biological target: HIV-1 Env of pseudovirus 6244_13_B5_4576 (HIV-1)
[5] = biological target: HIV-1 Env of pseudovirus Du422.1 (HIV-1)
[6] = biological target: HIV-1 Env of pseudovirus ZM249M.PL1 (HIV-1)
[7] = biological target: HIV-1 Env of pseudovirus 1394C9G1(Rev-) (HIV-1)
[8] = biological target: HIV-1 Env of pseudovirus 1006_11_C3_1601 (HIV-1)
[9] = biological target: HIV-1 Env of pseudovirus WITO4160.33 (HIV-1)
[10] = biological target: HIV-1 Env of pseudovirus Q769.d22 (HIV-1)
[11] = biological target: HIV-1 Env of pseudovirus QH0692.42 (HIV-1)
[12] = biological target: HIV-1 Env of pseudovirus ZM214M.PL15 (HIV-1)
[13] = biological target: HIV-1 Env of pseudovirus MS208.A1 (HIV-1)
[14] = biological target: HIV-1 Env of pseudovirus PVO.4 (HIV-1)
[15] = biological target: HIV-1 Env of pseudovirus Ce2060_G9 (HIV-1)
[16] = biological target: HIV-1 Env of pseudovirus CNE30 (HIV-1)
[17] = biological target: HIV-1 Env of pseudovirus TRJO4551.58 (HIV-1)
[18] = biological target: HIV-1 Env of pseudovirus ZM197M.PB7 (HIV-1)
[19] = biological target: HIV-1 Env of pseudovirus BF1266.431a (HIV-1)

N49P9.1 (antibody)
IC50 [1]: 0.332 µg/mL | IC80 [1]: 1.53 µg/mL | MPI [1]: 98 | IC50 [2]: 1.3 µg/mL | IC80 [2]: 4.39 µg/mL | MPI [2]: 100 | IC50 [3]: 1.51 µg/mL | IC80 [3]: 16.4 µg/mL | MPI [3]: 90 | IC50 [4]: 0.343 µg/mL | IC80 [4]: 1.5 µg/mL | MPI [4]: 100 | IC50 [5]: > 50 µg/mL | IC80 [5]: > 50 µg/mL | MPI [5]: 17 | IC50 [6]: 0.206 µg/mL | IC80 [6]: 1.92 µg/mL | MPI [6]: 95 | IC50 [7]: > 50 µg/mL | IC80 [7]: > 50 µg/mL | MPI [7]: 6 | IC50 [8]: 0.135 µg/mL | IC80 [8]: 0.448 µg/mL | MPI [8]: 100 | IC50 [9]: 0.051 µg/mL | IC80 [9]: 0.241 µg/mL | MPI [9]: 100 | IC50 [10]: 0.039 µg/mL | IC80 [10]: 0.148 µg/mL | MPI [10]: 100 | IC50 [11]: 0.107 µg/mL | IC80 [11]: 0.709 µg/mL | MPI [11]: 100 | IC50 [12]: 0.561 µg/mL | IC80 [12]: 2.96 µg/mL | MPI [12]: 100 | IC50 [13]: 0.082 µg/mL | IC80 [13]: 0.248 µg/mL | MPI [13]: 100 | IC50 [14]: 0.181 µg/mL | IC80 [14]: 0.874 µg/mL | MPI [14]: 100 | IC50 [15]: 0.781 µg/mL | IC80 [15]: 3.54 µg/mL | MPI [15]: 100 | IC50 [16]: 0.271 µg/mL | IC80 [16]: 0.971 µg/mL | MPI [16]: 100 | IC50 [17]: 0.035 µg/mL | IC80 [17]: 0.12 µg/mL | MPI [17]: 100 | IC50 [18]: 0.049 µg/mL | IC80 [18]: 0.283 µg/mL | MPI [18]: 100 | IC50 [19]: 0.808 µg/mL | IC80 [19]: 3.14 µg/mL | MPI [19]: 95
